Substitutions are numbered along the chain they refer to.
Key:
[1] = target: T1, Pla1-Y86D (Schizosaccharomyces pombe (fission …, UniProt Q10295 1-566, Y86D)); assay: fluorescence polarization
T1 sequence: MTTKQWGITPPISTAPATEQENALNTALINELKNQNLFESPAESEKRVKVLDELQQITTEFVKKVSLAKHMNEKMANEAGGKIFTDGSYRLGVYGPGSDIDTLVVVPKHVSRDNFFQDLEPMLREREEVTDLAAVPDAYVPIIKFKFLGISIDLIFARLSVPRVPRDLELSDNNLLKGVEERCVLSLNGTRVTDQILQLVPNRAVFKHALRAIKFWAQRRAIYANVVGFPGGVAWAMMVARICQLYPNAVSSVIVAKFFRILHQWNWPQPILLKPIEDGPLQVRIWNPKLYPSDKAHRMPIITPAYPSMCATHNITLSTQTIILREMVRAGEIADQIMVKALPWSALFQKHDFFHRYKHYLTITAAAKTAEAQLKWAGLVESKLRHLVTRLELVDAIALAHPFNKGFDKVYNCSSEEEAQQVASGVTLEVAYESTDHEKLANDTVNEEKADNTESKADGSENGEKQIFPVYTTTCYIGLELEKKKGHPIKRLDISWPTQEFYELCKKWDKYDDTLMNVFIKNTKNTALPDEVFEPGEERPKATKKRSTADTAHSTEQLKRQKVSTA

[2] = target: T2, Pla1 poly(A) polymerase wild-type (Schizosaccharomyces pombe (fission …, UniProt Q10295 1-566)); assay: fluorescence polarization
T2 sequence: T1 sequence with D86Y

B1: 12-mer RNA primer (ssRNA)
RNA: UUUCUGUGGCUA
- binding result [1]: no binding
- Kd [2]: ~456 nM
